According to patent US20090208538A1:

Columns and labels:
HLA-A*0201 (human) [1] = experiment: iTopia binding
HLA-A*0201 (human) [2] = experiment: iTopia affinity
HLA-A*0201 (human) [3] = experiment: iTopia net score

cdr2 246-254 RALELEAV (peptide)
binding vs positive control (HLA-A*0201 (human) [1]): > 30% | ED50 (HLA-A*0201 (human) [2]): 1000 nM | iScore (HLA-A*0201 (human) [3]): 0.352
